The values that follow come from publication PMC4819454 (ACS Central Science, 2016).

In series [1] the target is porcine pancreatic α-amylase (porcine) (UniProt P00690). Kind of series: enzyme inhibition kinetics.
Series [2] addresses human pancreatic α-amylase (human) (UniProt P04746). Kind of series: enzyme inhibition kinetics.
The target in another series is HPA. The following applies: read-out: Ki against HPA, cited from earlier work.
The conditions of series [3]: cited from earlier work.
For series [4] the following is noted: cited from earlier work. The source holds these as a separate data set.

Where two headings read alike, the source gives them in different places.

Chain of UniProt P00690 (P00690 16-511): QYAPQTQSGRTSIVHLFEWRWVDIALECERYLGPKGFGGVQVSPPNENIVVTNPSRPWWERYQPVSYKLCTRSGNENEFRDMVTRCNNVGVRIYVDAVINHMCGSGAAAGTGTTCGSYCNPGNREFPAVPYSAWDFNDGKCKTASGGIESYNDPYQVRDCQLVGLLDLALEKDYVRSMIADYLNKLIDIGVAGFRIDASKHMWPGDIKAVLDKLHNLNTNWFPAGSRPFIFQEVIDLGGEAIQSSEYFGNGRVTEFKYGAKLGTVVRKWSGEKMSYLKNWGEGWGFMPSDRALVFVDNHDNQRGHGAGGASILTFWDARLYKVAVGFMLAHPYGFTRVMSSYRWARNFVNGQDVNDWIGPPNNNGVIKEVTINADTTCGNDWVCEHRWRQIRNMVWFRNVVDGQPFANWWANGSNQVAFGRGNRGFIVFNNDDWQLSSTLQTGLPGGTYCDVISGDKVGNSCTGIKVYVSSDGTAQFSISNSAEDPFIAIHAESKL
Chain of UniProt P04746 (P04746 16-511): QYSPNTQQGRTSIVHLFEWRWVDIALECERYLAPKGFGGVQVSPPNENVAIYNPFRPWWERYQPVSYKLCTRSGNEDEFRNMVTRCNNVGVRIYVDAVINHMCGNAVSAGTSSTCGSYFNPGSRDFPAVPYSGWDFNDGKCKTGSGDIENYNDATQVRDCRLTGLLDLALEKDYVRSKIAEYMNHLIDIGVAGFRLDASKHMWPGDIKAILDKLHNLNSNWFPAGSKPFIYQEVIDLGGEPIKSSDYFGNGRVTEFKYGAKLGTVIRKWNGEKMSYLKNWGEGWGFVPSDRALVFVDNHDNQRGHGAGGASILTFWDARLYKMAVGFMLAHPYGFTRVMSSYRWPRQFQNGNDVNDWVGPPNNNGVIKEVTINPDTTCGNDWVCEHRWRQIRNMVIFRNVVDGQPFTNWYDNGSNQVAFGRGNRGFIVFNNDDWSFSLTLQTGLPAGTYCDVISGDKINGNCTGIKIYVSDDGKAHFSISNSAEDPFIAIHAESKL

For the molecule recombinant helianthamide (peptide), the Ki in series [1] is 0.1 nM; in series [2], 0.01 nM.

For Montbretin A [reference compound], at HPA, the Ki is 8 nM.

B1: tendamistat: 74-residue peptide with two disulfide bonds from Streptomyces tendae (protein, UniProt P01092 31-104, looked up)
Alpha-amylase inhibitor …: DTTVSEPAPSCVTLYQSWRYSQADNGCAQTVTVKVVYEDDTEGLCYAVAPGQITTVGDGYIGSHGHARYLARCL
As to B1, the immunogenicity entry in series [3] (clinic) is “pronounced immunogenicity”. In addition, the “blood plasma glucose levels” value in series [3] (clinical trials) was “significant decrease in blood plasma glucose levels”. Further, the vulnerability to degradation entry in series [4] is recorded as “vulnerability to degradation”. The Ki on HPA (estimated) is 0.009 to 0.2 nM.

By Ki is commonly meant the equilibrium dissociation constant of an inhibitor or competing ligand from its target.
